{"source": "patent US20020081614", "about": "“Functional genomics using zinc finger proteins” (Sangamo BioSciences, Inc., published 2002)", "key": {"[1]": {"tested_on": "M6-120S ZFP-VP16 (pcV-M6-120S) (synthetic construct)", "assay": "cell_activity", "conditions": "293 cells; reporter pGLPVFH, table title endogenous VEGF; location -2243"}, "[2]": {"tested_on": "M6-2009S ZFP-VP16 (pcV-M6-2009S, also written M6-2009A) (synthetic construct)", "assay": "cell_activity", "conditions": "293 cells; reporter pGLPVFH, table title endogenous VEGF; location -363"}, "[3]": {"tested_on": "M6-1878S ZFP-VP16 (pcV-M6-1878S) (synthetic construct)", "assay": "cell_activity", "conditions": "293 cells; reporter pGLPVFH, table title endogenous VEGF; location -536"}, "[4]": {"tested_on": "M6-111S ZFP-KRAB (pcK-M6-111S, printed pcK-M6-11S) (synthetic construct)", "assay": "cell_activity", "conditions": "cotransfected luciferase reporter; about 40% repression of endogenous VEGF"}, "[5]": {"tested_on": "M6-111S ZFP-VP16 (pcV-M6-111S) (synthetic construct)", "assay": "cell_activity", "conditions": "293 cells; target printed ATGGGGGTC in Table 1 but ATGGGGGTG in p236 and p241"}, "[6]": {"target": "T1, VF471A-VP16 (pcV-VF471A) (synthetic construct)", "T1 chain": "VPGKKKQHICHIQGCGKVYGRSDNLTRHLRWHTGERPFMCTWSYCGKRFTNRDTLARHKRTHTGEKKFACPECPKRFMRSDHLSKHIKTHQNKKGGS", "assay": "cell_activity; luciferase reporter in 293 cells, vs pcV-RAN", "procedure": "All plasmid DNA was prepared using Qiagen plasmid purification kits. The human embryonic kidney 293 cells were seeded into each well of a 6-well plate with a density to reach approximately 70% confluence the next day. Cells were co-transfected with 50 ng effector DNA (ZFP-expression plasmid), 900 ng reporter DNA and 100 ng pCMV-LacZ DNA using either Lipofectamine (GIBCO-BRL, MD) or GenePORTER (Gene Therapy Systems Inc, CA) transfection reagent. The co-expressed β-galactosidase activity was used a control to normalize the luciferase activity. Cell lysates were harvested 40 to 48 hours after transfection. Luciferase assays were performed using the Dual-Light Luciferase and β-galactosidase Reporter Assay System (Tropix, MA).\nWhen the VP16 domain was replaced with a peptide, which has no transcription regulation activity, this zinc finger protein (pcV-VF471A-cat) lost its activity of trans-activating the luciferase gene. […] Therefore, the DNA binding domain (VF471A ZFP) combined with the regulation domain (VP16) in this example were able to turn on the gene at an appropriate target sites."}}}
{"molecule": "GGGGGTGCC (double strand) [M6-120S site]", "values": [{"measurement": "activity (fold activation)", "setting": "[1]", "value": 13.8}]}
{"molecule": "GAAGGGGGC (double strand) [M6-2009S site]", "values": [{"measurement": "activity (fold activation)", "setting": "[2]", "value": 4.5}]}
{"molecule": "GAGTGTGTG (double strand) [M6-1878S site]", "values": [{"measurement": "activity (fold activation)", "setting": "[3]", "value": 4.2}]}
{"molecule": "ATGGGGGTG (double strand) [M6-111S site]", "values": [{"measurement": "activity", "setting": "[4]", "value": 80, "unit": "% repression"}, {"measurement": "activity (fold activation)", "setting": "[5]", "value": 4.1}]}
{"molecule": "reporter with three tandem M6-1892S sites (pGLP-VF471x3) (dsDNA) DNA 1: GGGGTTGAG DNA 2: CTCAACCCC", "values": [{"measurement": "activity", "setting": "[6]", "value": 8, "unit": "fold activation"}]}
